Experimental findings from article doi:10.1101/467431 are described below.

In this assay the target is Sca2 full-length passenger domain, construct Sca_(34-1515) (Rickettsia conorii) (UniProt Q92JF7). Description: ITC. Background: ITC needs no label: the signal is the heat of the interaction.

Substance “monomeric actin (LatB-actin) (from UniProt P68135 1-377) (natural protein)” returned a KD1 (two-site binding model) of 0.19 µM, a KD2 (two-site binding model) of 0.02 µM, a N of the single site model (called unrealistic) of 0.6 and a stoichiometry N (actin subunits per Sca (34-1515)) of 2.
